Source: publication PMC5372463, “Bacterial kinesin light chain (Bklc) links the Btub cytoskeleton to membranes” (Scientific Reports, 2017)

Target: T1, BtubA/B heterodimer (bacterial tubulin) from Prosthecobacter dejongeii (Prosthecobacter dejongeii, UniProt Q8GCC5 1-473; Q8GCC1 1-426)
T1 construct: The same preparation stood as soluble (non-polymerized) heterodimer or, in polymerization buffer with GTP, as filaments; the assay tells which; Construct was a gift from JM; Andreu; also called Btubs; Btub filaments; source: E. coli C41 (DE3), co-expressed from a bicistronic construct, purified (polymerization/depolymerization cycle, SEC)
T1 sequence (looked up) 1: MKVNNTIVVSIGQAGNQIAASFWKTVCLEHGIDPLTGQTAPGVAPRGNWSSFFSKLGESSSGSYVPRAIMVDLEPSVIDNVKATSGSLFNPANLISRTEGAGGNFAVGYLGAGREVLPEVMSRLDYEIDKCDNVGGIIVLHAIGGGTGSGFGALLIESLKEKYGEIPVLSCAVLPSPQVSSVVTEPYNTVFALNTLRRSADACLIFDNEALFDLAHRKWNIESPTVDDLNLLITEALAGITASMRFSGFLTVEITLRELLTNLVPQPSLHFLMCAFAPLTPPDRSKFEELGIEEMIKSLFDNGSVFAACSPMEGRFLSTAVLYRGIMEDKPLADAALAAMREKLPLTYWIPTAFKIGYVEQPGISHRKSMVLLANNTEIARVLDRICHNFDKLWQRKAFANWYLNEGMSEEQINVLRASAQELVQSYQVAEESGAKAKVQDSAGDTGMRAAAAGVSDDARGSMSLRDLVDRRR
T1 sequence (looked up) 2: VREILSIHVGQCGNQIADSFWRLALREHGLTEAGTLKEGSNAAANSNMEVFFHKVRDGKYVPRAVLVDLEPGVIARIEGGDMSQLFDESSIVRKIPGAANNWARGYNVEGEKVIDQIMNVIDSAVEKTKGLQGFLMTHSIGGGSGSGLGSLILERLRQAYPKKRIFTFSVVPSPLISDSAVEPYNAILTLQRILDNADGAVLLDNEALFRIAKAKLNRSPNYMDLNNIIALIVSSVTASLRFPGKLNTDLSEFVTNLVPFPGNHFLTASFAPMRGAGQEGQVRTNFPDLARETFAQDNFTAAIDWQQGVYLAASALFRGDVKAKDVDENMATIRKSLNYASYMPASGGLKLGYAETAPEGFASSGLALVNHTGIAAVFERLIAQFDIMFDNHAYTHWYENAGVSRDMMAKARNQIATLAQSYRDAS
Test: co-sedimentation; 10 μM BtubA/B with 10 or 20 μM Bklc in polymerization buffer (20 mM TrisHCl pH 7.5, 300 mM potassium glutamate, 5 mM MgCl2, 1 mM EGTA, 2 mM GTP), 10 min 25 °C, 100.000 x g 30 min; pellet depolymerized at 4 °C (S2); densitometry of Coomassie gels
Details: both partners purified

B1: Bacterial kinesin light chain (Bklc) from Prosthecobacter vanneervenii, C-terminal poly-histidine tag (natural protein, UniProt A8Y5U5 1-256, looked up)
chain: MDTALERQIASASRSVEEARRLAYHDPIRVGALVEQISVLADLRQKEGDFRKAESLYREALFRAQELRKQDPDLLTGIYSLLAHLYDRWGRMDKAAEFYELALKISAENGLEESDKVATIKNNLAMIFKQLRKFERAEGYYCEALETFQRLDGEQSARVASVYNNLGVLYYSHMDVDRAQVMHERALAIRQNLHEGQMDPADLSQTFINLGAVYKAAGDFQKAEACVDRAKRIRAAMNGYHPNPRRSASLLIDKSL
notes: Bklc (bacterial kinesin light chain), Prosthecobacter vanneervenii; Uniprot id A8Y5U5_9BACT; GenBank CAP16140.1; the bklc gene was expressed from pHis17; Construct was a gift from M. Pilhofer; Monomer by SEC and AUC; also called Bklc-His; source: E. coli C41 (DE3), purified (Ni-NTA, SEC); not shown: His-tag, C-terminal, kept
stoichiometry N: ~1 Bklc monomer per BtubA/B heterodimer
